Laboratory results: PMC6550519, “Regulatory Mechanism of Nicotine Degradation in Pseudomonas putida” (mBio, 2019)

Assays:
[1] = tested on: NicR2 (Pseudomonas putida S16); test: ITC; conditions: EMSA: 10 mM Tris-HCl, 100 mM NaCl, 27 nM DNA, 180 nM NicR2, 30 min room temperature, 9% native PAGE; ITC: PBS, 64 uM NicR2 in cell, 100 uM DNA titrant …
NicR2 = test: ITC, […] HSP titrated into […] purified free NicR2; supported by EMSA; format: binding, Pseudomonas putida

| Compound | Kd [1] [nM] | Kd (NicR2) [nM] |
| --- | --- | --- |
| CACTAATTATACCGTCGTACATAGAATAAA (double strand) [R-m3 30 bp] | 1800 |  |
| CACTAATTATACCGTCGTACATATAATAAA (double strand) [wild type 30 bp (Pspm inverted repeat)] | 180 |  |
| CACTAATTATACCGTCGTACATATCCTAAA (double strand) [R-m12 30 bp] | 140 |  |
| O=C(O)CCC(=O)c1ccc(O)nc1 [HSP, 6-hydroxy-3-succinoyl-pyridine] |  | 4950 ± 480 |
| CACTAATTATACCGTCGTACATCTAATAAA (double strand) [R-m4 30 bp] | 570 |  |
